Assay results as given in patent US20040248211A1, “ICAM-related protein” (priority 1992, published 2004).

Columns and labels:
[1] = test system: Neutrophil binding to ICAM-R E37/A; experiment: Neutrophil adhesion; format: cell-based, human
Protocol: (§1) Binding of HL-60 cells, neutrophils, and COS cells expressing. CD11b to the chimeric proteins was assayed as follows. The chimeric fusion proteins were diluted to 20 μg/ml in 0.1 M Na-carbonate/bicarbonate buffer (pH 9.6) and 50 μl was used to coat each well (in triplicate) of an Immulon 4 96-well plate (Dynatech). The plates were incubated overnight at 4° C. and washed three times in PBS. Wells were blocked with 1% human serum albumin (HSA) for one hour at 37° C. and washed three times in PBS. Two hundred μl of RPMI+0.25% HSA (with/without phorbol ester at 10 ng/ml, with/without blocking mAb at 15 μg/ml) was added to each well. ICAM-R antibodies used were ICR-1.1, ICR-8.1, ICR-4.2, ICR-6.2, ICR-9.2, and ICR-19.3. […] The adherent cells were quantified by staining with crystal violet (1% solution in 10% ethanol), washing with water and eluting the dye with 66% ethanol in water and measuring the absorbance at 570 nm. In each experiment percent cells bound was calculated using the absorbency values obtained from the CD18 mAb coated well as 100%. […]
This motif in domain 1 of ICAM-1 is essential for CD11a but not CD11b binding. Consequently, the effect of the alanine substitution at ICAM-R E37 (E37/A) on CD11b binding was evaluated.

[2] = test system: JY cells (LFA-1) binding to ICAM-R/IgG; experiment: JY cell binding to plate-bound ICAM-R/IgG chimeras; format: cell-based, human; details: chimera coated at 10 μg/ml
Protocol: The binding of the lymphoblastoid cell line JY, which expresses LFA-1, to wild type ICAM-R/IgG chimera was examined in the presence and absence of LFA-1 specific antibodies or antibodies specific for either domain 1 or 2 of ICAM-R. ICAM-R chimeras were diluted to 10 μg/ml in 0.1M Na-carbonate/bicarbonate buffer pH 9.6 and used to coat triplicate wells (50 μl/well) of an Immulon 4 96-well plate (Dynatech) overnight at 4° C. Wells were washed three times in PBS and blocked with 1% BSA (in PBS) for 1 hour at 37° C. JY cells were labeled with the fluorescent dye Calcein (Moleculat Probes, Eugene, Oreg.) at 8 μg/ml at 37° C. in serum free RPMI for 20 minutes. Cells were washed with RPMI and resuspended in binding buffer (0.2% HSA in RPMI. Approximately 1×10^5 cells were added to each well containing the binding buffer with or without antibody (20 μg/ml of ICR-2.1, ICR-1.1, ICR-3.1, ICR-5.1, ICR-7.1, ICR-8.1, ICR-4.2, ICR-6.2, ICR-9.2, TS1/22 or 60.3) so that the final volume was 0.35 ml. Plates were incubated at 37° C. in the dark for 45 minutes and input fluorescence was quantitated with a fluorescence reader (Millipore) in a 96-well format. Unbound cells were removed by inverting the plate in 0.1% BSA in PBS for 20 minutes. Bound cells were quantitated by measuring the remaining fluorescence and presented as percent input minus background binding to wells coated with BSA alone.

[3] = test system: Neutrophil binding to ICAM-R/His; experiment: Neutrophil adhesion; format: cell-based, human
Protocol: as §1, with “ICR-19.3. CD11a blocking antibody TS1/22 (ATCC HB202) and CD11b blocking antibodies 44AACB (ATCC HB249) and LM2/1 (ATCC HB204) were also used as well as monoclonal antibodies IC/A4.1 to CD49d (α4) and 22F12C to CD18, both of which were generated using standard hybridoma techniques.” for “ICR-19.3.”

[4] = molecular target: T1, αd/CD18 transfected CHO cells (Homo sapiens, UniProt P05107+Q13349); experiment: Flow cytometry binding of soluble chimeras; details: chimera 5 μg/ml
T1 construct: expressed in transfected cells; host or cells: CHO cells
T1 sequence (Q13349 18-1161): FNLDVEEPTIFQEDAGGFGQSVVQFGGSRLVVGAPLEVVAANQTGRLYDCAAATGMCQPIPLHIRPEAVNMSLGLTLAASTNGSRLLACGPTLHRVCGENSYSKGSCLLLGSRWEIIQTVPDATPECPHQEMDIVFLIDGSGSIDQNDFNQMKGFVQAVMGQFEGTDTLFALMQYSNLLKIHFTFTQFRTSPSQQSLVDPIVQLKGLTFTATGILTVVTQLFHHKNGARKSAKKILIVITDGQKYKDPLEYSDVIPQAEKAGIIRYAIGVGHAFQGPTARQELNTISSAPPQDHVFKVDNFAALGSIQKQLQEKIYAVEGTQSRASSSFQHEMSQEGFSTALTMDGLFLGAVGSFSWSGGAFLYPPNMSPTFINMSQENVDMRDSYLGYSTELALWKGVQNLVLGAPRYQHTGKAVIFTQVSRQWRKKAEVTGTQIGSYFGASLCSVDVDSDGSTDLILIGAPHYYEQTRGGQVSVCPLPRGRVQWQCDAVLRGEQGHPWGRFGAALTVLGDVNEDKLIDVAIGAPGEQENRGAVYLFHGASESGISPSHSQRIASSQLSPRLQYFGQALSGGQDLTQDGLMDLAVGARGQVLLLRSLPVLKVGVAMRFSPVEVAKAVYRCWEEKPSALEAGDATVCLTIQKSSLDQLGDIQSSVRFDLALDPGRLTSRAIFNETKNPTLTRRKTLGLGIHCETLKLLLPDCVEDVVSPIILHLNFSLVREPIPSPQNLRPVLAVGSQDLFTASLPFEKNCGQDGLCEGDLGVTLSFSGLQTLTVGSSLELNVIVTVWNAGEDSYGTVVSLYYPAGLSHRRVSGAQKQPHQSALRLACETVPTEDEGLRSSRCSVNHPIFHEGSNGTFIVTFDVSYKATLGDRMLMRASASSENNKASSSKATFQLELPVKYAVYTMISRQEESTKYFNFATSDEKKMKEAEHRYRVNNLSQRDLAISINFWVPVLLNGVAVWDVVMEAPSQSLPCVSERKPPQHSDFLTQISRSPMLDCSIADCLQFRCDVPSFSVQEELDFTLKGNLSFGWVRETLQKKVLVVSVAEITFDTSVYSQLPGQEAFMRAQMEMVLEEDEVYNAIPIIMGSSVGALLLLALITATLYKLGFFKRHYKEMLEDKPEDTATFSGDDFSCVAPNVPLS
T1 sequence (P05107 23-769): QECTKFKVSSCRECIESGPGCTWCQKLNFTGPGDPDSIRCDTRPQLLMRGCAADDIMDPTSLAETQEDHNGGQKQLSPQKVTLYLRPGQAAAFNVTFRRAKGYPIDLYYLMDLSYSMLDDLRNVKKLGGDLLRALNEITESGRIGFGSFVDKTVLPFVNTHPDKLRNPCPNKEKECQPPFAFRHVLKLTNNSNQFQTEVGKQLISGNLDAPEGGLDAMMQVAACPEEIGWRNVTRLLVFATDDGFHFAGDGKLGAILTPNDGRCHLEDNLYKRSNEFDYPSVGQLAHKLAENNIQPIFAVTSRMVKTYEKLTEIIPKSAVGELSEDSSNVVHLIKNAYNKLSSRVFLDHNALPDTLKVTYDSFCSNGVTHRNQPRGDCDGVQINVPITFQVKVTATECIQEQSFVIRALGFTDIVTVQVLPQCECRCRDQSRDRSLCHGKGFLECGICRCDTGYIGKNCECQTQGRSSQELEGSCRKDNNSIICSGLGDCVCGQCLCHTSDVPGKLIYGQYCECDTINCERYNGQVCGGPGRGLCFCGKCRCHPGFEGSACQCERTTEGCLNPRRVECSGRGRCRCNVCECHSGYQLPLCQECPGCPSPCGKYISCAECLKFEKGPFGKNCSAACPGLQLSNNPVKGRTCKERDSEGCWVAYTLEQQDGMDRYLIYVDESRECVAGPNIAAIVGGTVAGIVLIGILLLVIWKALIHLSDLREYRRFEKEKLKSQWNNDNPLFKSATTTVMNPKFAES
Protocol: Binding of αd/CD18-transfected cells to soluble ICAM-1/IgG, ICAM-R/IgG, or VCAM-1/IgG chimeras was determined by flow cytometry. Approximately one million αd/CD18-transfected CHO cells (grown in spinner flasks for higher expression) per measurement were suspended in 100 μl binding buffer (RPMI and 1% BSA) with or without 10 μg/ml anti-CD18 antibody. After a 20 minute incubation at room temperature, the cells were washed in binding buffer and soluble ICAM-1/IgG or ICAM-R/IgG chimera was added to a final concentration of 5 μg/ml. Binding was allowed to proceed for 30 minute at 37° C., after which the cells were washed three times and resuspended in 100 μl binding buffer containing FITC-conjugated sheep anti-human IgG1 at a 1:100 dilution. After a 30 minute incubation, samples were washed three times and suspended in 200 μl binding buffer for analysis with a Becton Dickinson FACScan.

[5] = molecular target: T2, LFA-1 transfected CHO cells (Homo sapiens, UniProt P05107+P20701); experiment: Binding of transfected CHO cells to immobilized chimeras; format: cell-based; details: only following pretreatment with PMA
T2 construct: expressed in transfected cells; host or cells: CHO cells
T2 sequence (P20701 26-1170): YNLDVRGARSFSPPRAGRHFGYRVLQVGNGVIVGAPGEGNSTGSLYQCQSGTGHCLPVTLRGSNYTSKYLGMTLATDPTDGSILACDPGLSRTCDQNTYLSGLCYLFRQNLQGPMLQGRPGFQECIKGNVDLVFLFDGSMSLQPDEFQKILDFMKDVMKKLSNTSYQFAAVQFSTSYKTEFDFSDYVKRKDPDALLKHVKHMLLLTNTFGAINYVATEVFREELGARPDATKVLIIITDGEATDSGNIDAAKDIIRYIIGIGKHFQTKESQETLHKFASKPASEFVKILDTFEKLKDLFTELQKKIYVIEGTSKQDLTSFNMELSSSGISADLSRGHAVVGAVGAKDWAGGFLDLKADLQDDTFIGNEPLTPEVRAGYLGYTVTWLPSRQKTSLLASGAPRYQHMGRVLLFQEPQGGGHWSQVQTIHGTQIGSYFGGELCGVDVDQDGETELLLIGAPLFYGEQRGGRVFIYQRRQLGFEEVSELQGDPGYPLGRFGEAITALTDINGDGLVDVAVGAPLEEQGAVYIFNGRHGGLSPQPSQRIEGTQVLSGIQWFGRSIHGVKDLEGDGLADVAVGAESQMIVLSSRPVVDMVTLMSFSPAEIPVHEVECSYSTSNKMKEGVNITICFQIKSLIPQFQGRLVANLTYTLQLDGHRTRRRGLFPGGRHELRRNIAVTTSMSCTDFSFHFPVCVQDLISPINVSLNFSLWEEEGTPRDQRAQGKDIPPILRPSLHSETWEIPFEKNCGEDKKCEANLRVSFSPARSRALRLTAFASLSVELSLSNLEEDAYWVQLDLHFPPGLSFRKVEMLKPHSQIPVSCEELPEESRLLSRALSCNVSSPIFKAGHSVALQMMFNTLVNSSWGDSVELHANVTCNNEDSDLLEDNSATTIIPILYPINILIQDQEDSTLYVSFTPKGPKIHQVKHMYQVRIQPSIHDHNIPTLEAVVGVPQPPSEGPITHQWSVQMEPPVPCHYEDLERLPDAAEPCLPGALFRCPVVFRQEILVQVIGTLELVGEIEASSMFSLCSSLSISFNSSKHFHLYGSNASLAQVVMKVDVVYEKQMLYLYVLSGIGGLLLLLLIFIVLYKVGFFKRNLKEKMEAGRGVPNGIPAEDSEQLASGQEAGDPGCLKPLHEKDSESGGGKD
T2 sequence (P05107 23-769): as the sequence (P05107 23-769) above
Protocol: In replicate assays, soluble ICAM-1, ICAM-R, or VCAM-1 IgG1 chimeric fusion proteins were immobilized on plastic and the ability of αd/CD18 or LFA-1 transfected CHO cells (see co-owned, concurrently filed U.S. patent application Ser. No. 08/286,889 identified as attorney docket No. 32168) to bind the immobilized ligand was determined. Transfected cells were labeled internally with calcein, washed in binding buffer (RPMI with 1% BSA), and incubated in either buffer only (with or without 10 ng/ml PMA) or buffer with anti-CD18 at 10 μg/ml. Transfected cells were added to 96-well Immulon 4 microtiter plates previously coated with soluble ICAM-1/Ig, ICAM-R/Ig or VCAM-1/Ig chimera, or bovine serum albumin (BSA) as a negative control. Wells were blocked with 1% BSA in PBS prior to addition of labeled cells. After washing the plates by immersion in PBS with 0.1% BSA for 20 minutes, total fluorescence remaining in each well was measured using a Cytofluor 2300 (Millipore, Milford, Mass.).

[6] = test system: neutrophil binding to ICAM-2; experiment: Neutrophil adhesion; format: cell-based, human
Protocol: as §1, with “ICR-19.3. CD11a blocking antibody TS1/22 (ATCC HB202) and CD11b blocking antibodies 44AACB (ATCC HB249) and LM2/1 (ATCC HB204) were also used as well as monoclonal antibodies IC/A4.1 to CD49d (α4) and 22F12C to CD18, both of which were generated using standard hybridoma techniques.” for “ICR-19.3.”

B1: ICAM-R E37/A: ICAM-R/IgG chimera with alanine substitution at E37 (protein)
chain: QEFLLRVEPQNPVLSAGGSLFVNCSTDCPSSEKIALATSLSKELVASGMGWAAFNLSNVTGNSRILCSVYCNGSQITGSSNITVYGLPERVELAPLPPWQPVGQNFTLRCQVEGGSPRTSLTVVLLRWEEELSRQPAVEEPAEVTATVLASRDDHGAPFSCRTELDMQPQGLGLFVNTSAPRQLRTFVLPVTPPRLVAPRFLEVETSWPVDCTLDGLFPASEAQVYLALGDQMLNATVMNHGDTLTATATATARADQEGAREIVCNVTLGGERREARENLTVFSFLGPIVNLSEPTAHEGSTVTVSCMAGARVQVTLDGVPAAAPGQTAQLQLNATESDDGRSFFCSATLEVDGEFLHRNSSVQLRVLYGPKIDRATCPQHLKWKDKTRHVLQCQARGNPYPELRCLKEGSSREVPVGIPFFVNVTHNGTYQCQASSSRGKYTLVVVMDIEAFSSH
modifications: left off: a dimerising Fc or GST
neutrophil binding relative to wild type ICAM-R [1]: binding was reduced relative to wild type ICAM-R
LFA-1 mediated JY cell adhesion to variant ICAM-R/IgG chimera [2]: completely abrogated adhesion of JY cells

B2: ICAM-R/His: histidine-tagged ICAM-R extracellular region fusion protein (protein)
chain: QEFLLRVEPQNPVLSAGGSLFVNCSTDCPSSEKIALETSLSKELVASGMGWAAFNLSNVTGNSRILCSVYCNGSQITGSSNITVYGLPERVELAPLPPWQPVGQNFTLRCQVEGGSPRTSLTVVLLRWEEELSRQPAVEEPAEVTATVLASRDDHGAPFSCRTELDMQPQGLGLFVNTSAPRQLRTFVLPVTPPRLVAPRFLEVETSWPVDCTLDGLFPASEAQVYLALGDQMLNATVMNHGDTLTATATATARADQEGAREIVCNVTLGGERREARENLTVFSFLGPIVNLSEPTAHEGSTVTVSCMAGARVQVTLDGVPAAAPGQTAQLQLNATESDDGRSFFCSATLEVDGEFLHRNSSVQLRVLYGPKIDRATCPQHLKWKDKTRHVLQCQARGNPYPELRCLKEGSSREVPVGIPFFVNVTHNGTYQCQASSSRGKYTLVVVMDIEAFSSH
modifications: left off: small tags and cut ends
notes: histidine-tagged ICAM-R extracellular region fusion protein
neutrophil adhesion to immobilized protein [3]: Neutrophils adhered to immobilized ICAM-R/His

B3: ICAM-1/IgG: soluble ICAM-1 IgG1 chimeric fusion protein (protein)
chain: QTSVSPSKVILPRGGSVLVTCSTSCDQPKLLGIETPLPKKELLLPGNNRKVYELSNVQEDSQPMCYSNCPDGQSTAKTFLTVYWTPERVELAPLPSWQPVGKNLTLRCQVEGGAPRANLTVVLLRGEKELKREPAVGEPAEVTTTVLVRRDHHGANFSCRTELDLRPQGLELFENTSAPYQLQTFVLPATPPQLVSPRVLEVDTQGTVVCSLDGLFPVSEAQVHLALGDQRLNPTVTYGNDSFSAKASVSVTAEDEGTQRLTCAVILGNQSQETLQTVTIYSFPAPNVILTKPEVSEGTEVTVKCEAHPRAKVTLNGVPAQPLGPRAQLLLKATPEDNGRSFSCSATLEVAGQLIHKNQTRELRVLYGPRLDERDCPGNWTWPENSQQTPMCQAWGNPLPELKCLKDGTFPLPIGESVTVTRDLEGTYLCRARSTQGEVTRKVTVNVLSPRYE
modifications: left off: a dimerising Fc or GST
notes: soluble ICAM-1 IgG1 chimeric fusion protein
αd/CD18 transfectants binding soluble chimera [4]: no binding
increase in binding of LFA-1 transfected cells [5]: 2-3 fold

B4: ICAM-2: chimeric ICAM-2/IgG fusion protein (protein)
chain: KVFEVHVRPKKLAVEPKGSLEVNCSTTCNQPEVGGLETSLDKILLDEQAQWKHYLVSNISHDTVLQCHFTCSGKQESMNSNVSVYQPPRQVILTLQPTLVAVGKSFTIECRVPTVEPLDSLTLFLFRGNETLHYETFGKAAPAPQEATATFNSTADREDGHRNFSCLAVLDLMSRGGNIFHKHSAPKMLEIYEPVSDSQ
modifications: left off: a dimerising Fc or GST
notes: chimeric ICAM-2/IgG fusion protein
neutrophil binding relative to ICAM-1 [6]: approximately 70%
